Experimental data reported in IntAct's records for PubMed 18075593.

Biological target: cry1_mouse Cry1 (UniProt P97784)
Sequence (P97784 whole entry): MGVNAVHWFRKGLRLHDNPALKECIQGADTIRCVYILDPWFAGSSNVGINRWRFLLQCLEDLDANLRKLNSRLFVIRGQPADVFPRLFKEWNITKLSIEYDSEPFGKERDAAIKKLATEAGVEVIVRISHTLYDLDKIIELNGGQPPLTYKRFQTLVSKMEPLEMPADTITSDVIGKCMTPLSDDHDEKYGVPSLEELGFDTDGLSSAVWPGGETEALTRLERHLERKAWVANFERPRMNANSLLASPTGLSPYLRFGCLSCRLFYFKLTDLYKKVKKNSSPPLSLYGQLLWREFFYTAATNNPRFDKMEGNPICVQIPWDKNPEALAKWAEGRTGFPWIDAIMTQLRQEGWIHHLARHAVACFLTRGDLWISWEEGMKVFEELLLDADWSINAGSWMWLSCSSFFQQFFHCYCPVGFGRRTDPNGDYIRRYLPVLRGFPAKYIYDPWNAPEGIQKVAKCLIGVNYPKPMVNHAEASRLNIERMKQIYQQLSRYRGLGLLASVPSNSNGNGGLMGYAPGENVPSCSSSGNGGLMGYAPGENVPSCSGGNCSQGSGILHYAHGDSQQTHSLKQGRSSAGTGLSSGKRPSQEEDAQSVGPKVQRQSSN

Basic helix-loop-helix ARNT-like protein 1 (Mus musculus), Q9WTL8-2 K537R, sequence (Q9WTL8 other isoform, or with tags, fused parts or gaps K537R): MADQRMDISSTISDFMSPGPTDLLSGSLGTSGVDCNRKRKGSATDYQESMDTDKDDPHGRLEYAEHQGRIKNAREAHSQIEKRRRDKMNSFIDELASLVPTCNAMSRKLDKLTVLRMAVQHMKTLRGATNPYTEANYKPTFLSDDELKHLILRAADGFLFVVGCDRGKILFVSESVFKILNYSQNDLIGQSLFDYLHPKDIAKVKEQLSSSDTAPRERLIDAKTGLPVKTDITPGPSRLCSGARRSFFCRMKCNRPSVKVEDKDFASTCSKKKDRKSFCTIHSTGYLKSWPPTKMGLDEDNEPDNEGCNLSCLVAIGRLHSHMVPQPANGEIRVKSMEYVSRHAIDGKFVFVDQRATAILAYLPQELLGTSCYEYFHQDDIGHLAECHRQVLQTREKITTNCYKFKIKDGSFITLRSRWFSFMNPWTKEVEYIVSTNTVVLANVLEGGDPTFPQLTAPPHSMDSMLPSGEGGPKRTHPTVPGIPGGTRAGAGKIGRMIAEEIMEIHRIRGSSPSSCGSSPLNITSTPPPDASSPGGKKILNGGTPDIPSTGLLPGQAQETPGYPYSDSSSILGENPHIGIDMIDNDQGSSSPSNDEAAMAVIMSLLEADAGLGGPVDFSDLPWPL

Basic helix-loop-helix ARNT-like protein 1 (Mus musculus), Q9WTL8-2 K537R
effect of a mutation on the interaction: decreasing interaction strength
